This note sets out measurements from patent EP4786492A1 (Simcere Zaiming Pharmaceutical Co., Ltd., dated 2026).

One experiment addresses T1, human DLL3-his protein (human, UniProt Q9NYJ7 27-492).
T1 construct: also called human DLL3 protein; DLL3 antigen protein; not shown: His tag
T1 sequence: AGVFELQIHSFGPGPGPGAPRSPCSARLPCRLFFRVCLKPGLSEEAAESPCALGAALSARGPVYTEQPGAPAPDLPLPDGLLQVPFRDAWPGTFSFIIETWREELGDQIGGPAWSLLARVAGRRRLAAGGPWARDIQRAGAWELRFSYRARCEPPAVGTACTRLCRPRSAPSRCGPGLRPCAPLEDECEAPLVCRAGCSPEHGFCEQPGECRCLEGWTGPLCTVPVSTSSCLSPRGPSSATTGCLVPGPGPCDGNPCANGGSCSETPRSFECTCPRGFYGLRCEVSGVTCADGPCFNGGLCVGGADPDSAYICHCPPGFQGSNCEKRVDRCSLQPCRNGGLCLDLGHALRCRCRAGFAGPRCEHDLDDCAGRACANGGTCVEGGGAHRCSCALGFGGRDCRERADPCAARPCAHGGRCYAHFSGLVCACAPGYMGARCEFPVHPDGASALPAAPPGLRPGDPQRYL
The experiment in a line: ELISA. In general terms: ELISA stands for enzyme-linked immunosorbent assay.

Experiment [1] has as its target T2, human DLL3 endogenously expressed on SHP77 and NCI-H82 cells (human, UniProt Q9NYJ7 27-618).
T2 construct: whole, on cells; cells endogenously expressing DLL3; also called SHP77 cells; SHP-77 cells
T2 sequence (looked up): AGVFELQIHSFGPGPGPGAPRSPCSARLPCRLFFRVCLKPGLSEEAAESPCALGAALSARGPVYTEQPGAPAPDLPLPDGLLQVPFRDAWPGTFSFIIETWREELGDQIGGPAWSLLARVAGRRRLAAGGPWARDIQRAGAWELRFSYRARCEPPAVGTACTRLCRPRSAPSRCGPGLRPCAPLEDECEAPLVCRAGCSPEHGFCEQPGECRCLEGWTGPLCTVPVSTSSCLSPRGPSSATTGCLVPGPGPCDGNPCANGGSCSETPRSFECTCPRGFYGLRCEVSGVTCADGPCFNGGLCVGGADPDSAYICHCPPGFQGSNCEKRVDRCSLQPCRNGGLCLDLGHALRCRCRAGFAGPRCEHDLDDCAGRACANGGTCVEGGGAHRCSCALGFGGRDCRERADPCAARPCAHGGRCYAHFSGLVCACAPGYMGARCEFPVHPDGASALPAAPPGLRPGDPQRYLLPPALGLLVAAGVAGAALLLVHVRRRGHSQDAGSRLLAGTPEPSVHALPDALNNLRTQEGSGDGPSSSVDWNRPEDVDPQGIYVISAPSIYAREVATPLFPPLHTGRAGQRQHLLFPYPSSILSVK
The experiment in a line: FACS, SHP77 and NCI-H82 cells. In general terms: Flow cytometry measures light scatter and fluorescence of single cells or particles in a stream.

Experiment [2] has as its target T3, human DLL3 on CHO-K1 hDLL3 cells (human, UniProt Q9NYJ7 27-492).
T3 construct: also called human DLL3 recombinant cell line
T3 sequence: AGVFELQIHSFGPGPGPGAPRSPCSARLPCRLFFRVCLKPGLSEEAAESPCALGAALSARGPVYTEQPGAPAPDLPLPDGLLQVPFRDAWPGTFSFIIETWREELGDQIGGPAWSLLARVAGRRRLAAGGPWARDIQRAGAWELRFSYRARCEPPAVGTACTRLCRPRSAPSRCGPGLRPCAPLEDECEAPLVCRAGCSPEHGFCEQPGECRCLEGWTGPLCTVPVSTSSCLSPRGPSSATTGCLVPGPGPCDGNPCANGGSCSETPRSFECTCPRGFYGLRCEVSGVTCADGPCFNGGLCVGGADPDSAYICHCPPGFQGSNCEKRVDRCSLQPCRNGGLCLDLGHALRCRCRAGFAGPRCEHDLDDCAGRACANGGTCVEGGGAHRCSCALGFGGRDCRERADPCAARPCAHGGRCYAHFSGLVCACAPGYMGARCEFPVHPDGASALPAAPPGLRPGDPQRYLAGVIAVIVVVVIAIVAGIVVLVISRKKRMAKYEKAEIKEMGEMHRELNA
The experiment in a line: FACS, CHO-K1 hDLL3 cells.

Experiment [3] has as its target T4, mouse DLL3 on CHO K1-mDLL3 cells (mouse, UniProt O88516 33-490).
T4 construct: also called mouse DLL3 recombinant cell line
T4 sequence: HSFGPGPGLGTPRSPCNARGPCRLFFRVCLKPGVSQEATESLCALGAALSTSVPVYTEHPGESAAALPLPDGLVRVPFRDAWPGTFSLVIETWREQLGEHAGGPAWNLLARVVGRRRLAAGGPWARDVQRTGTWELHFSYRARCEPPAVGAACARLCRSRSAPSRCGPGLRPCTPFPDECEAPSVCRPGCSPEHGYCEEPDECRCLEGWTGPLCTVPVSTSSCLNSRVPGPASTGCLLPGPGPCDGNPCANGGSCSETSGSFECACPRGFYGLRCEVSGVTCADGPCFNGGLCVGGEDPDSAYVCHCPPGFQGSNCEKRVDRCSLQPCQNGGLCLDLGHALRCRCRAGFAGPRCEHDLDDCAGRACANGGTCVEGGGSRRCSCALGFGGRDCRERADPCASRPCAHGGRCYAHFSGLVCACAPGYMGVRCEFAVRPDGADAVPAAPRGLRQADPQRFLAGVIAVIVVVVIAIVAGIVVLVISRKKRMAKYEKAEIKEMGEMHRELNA
Put plainly: FACS, CHO K1-mDLL3 cells.

Experiment [4] concerns the target T5, monkey DLL3 on CHO K1-cyno DLL3 cells (cynomolgus monkey).
T5 construct: also called monkey DLL3 recombinant cell line
T5 chain: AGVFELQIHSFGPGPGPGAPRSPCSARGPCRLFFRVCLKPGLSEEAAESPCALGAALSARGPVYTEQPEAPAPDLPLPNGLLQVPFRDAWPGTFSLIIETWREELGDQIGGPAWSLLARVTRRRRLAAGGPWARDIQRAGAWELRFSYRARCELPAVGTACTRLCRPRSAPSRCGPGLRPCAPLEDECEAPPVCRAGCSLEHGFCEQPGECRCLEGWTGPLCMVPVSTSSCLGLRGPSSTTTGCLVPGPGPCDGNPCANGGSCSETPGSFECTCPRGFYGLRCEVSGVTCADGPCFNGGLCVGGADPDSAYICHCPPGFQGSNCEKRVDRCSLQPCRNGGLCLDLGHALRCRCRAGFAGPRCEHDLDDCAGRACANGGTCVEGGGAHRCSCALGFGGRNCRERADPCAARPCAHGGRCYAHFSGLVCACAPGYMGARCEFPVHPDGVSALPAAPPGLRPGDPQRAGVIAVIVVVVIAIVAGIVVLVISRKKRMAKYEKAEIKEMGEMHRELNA
The experiment in a line: FACS, CHO K1-cyno DLL3 cells.

B1: Hab008L1H2a-hFc (Fc fusion)
scFv (part 1 of 2): DIQMTQSPSSLSASVGDRVTITCKASQNVGTAVAWYQQKPGKSPKLLIFSASIRYTGVPSRFSGSGSGTDFTLTISSLQPEDFATYYCQQYSSSPYTFGGGTKVEIK
scFv (part 2 of 2): EVQLVQSGAEVKKPGASVKVSCKASGYTFTDYYMNWVRQAPGQRLEWMGIINPYNSGTSYNQKFRGRVTLTVDKSASTAYMELSSLRSEDTAVYYCSRYDYDYDVEGAMDYWGQGTTVTVSS
notes: humanized mab008, VL-linker-VH-human IgG1 Fc; also called Hab008 humanized molecule; not shown: linker; human IgG1 Fc fragment
In the case of B1, the binding result with human DLL3-his protein is listed as “binds”; in experiment [1], “binds”; in experiment [2], “binds”; in experiment [3], “no binding”; in experiment [4] it was “binds”.

B2: Hab008L3H2a-hFc (Fc fusion)
scFv (part 1 of 2): DIVMTQSPDSLAVSLGERATINCKASQNVGTAVAWYQQKPGQSPKLLIFSASIRYTGVPDRFSGSGSGTDFTLTISSLQAEDVAVYYCQQYSSSPYTFGGGTKVEIK
scFv (part 2 of 2): EVQLVQSGAEVKKPGASVKVSCKASGYTFTDYYMNWVRQAPGQRLEWMGIINPYNSGTSYNQKFRGRVTLTVDKSASTAYMELSSLRSEDTAVYYCSRYDYDYDVEGAMDYWGQGTTVTVSS
notes: as for B1
In the case of B2, the binding result with human DLL3-his protein is reported as “binds”; in experiment [1], “binds”; in experiment [2] it was “binds”; in experiment [3] it was “no binding”; in experiment [4] it was “binds”.

B3: Hab008L1H5-hFc (Fc fusion)
scFv (part 1 of 2): DIQMTQSPSSLSASVGDRVTITCKASQNVGTAVAWYQQKPGKSPKLLIFSASIRYTGVPSRFSGSGSGTDFTLTISSLQPEDFATYYCQQYSSSPYTFGGGTKVEIK
scFv (part 2 of 2): EVQLVQSGAEVKKPGASVKVSCKASGYTFTDYYMNWVRRAPGQRLEWMGIINPYNGGTSYNQKFRGRVTITVDKSASTAYMELSSLRSEDTAVYYCSRYDYDYDVEGAMDYWGQGTTVTVSS
notes: as for B1
As to B3, the binding result with human DLL3-his protein is on record as “binds”; in experiment [1], “binds”; in experiment [2], “binds”; in experiment [3] it was “no binding”; in experiment [4] it was “binds”.

B4: Hab015VL5VH1a-hFc (Fc fusion)
scFv (part 1 of 2): NIQMTQSPSSLSASVGDRVTITCKASENVGTYVSWYQQKPGKSPKLLIYGASNRYTGVPSRFSGSGSGTDFTLTISSLQPEDFATYYCGQFYSFPSTFGGGTKVEIK
scFv (part 2 of 2): EVQLVESGGGLVKPGGSLRLSCAASGITFSNFWMNWVRQAPGKGLEWVGQIRLKSDDYATHYAESVKGRFTISREDSKNTVYLQMNSLKTEDTAVYYCTTGYYFDYWGQGTTVTVSS
notes: humanized mab015, VL-linker-VH-human IgG1 Fc; also called Hab015L5H1a; not shown: linker; human IgG1 Fc fragment
For B4, the binding result (with human DLL3-his protein; in experiment [1]; in experiment [2]; in experiment [3]; in experiment [4]) was “binds” in each case.

B5: Hab015VL5VH5a-hFc (Fc fusion)
scFv (part 1 of 2): NIQMTQSPSSLSASVGDRVTITCKASENVGTYVSWYQQKPGKSPKLLIYGASNRYTGVPSRFSGSGSGTDFTLTISSLQPEDFATYYCGQFYSFPSTFGGGTKVEIK
scFv (part 2 of 2): EVQLVESGGGLVKPGGSLRLSCVASGITFSNFWMNWVRQAPGKGLEWVGQIRLKSDDYATHYAESVKGRFTISREDSKNTVYLQMNSLKTEDTAVYYCTTGYYFDYWGQGTTVTVSS
notes: humanized mab015, VL-linker-VH-human IgG1 Fc; also called Hab015L5H5a; not shown: linker; human IgG1 Fc fragment
As to B5, the binding result (with human DLL3-his protein; in experiment [1]; in experiment [2]; in experiment [3]; in experiment [4]) was “binds” in each case.

B6: Hab015VL5VH6a-hFc (Fc fusion)
scFv (part 1 of 2): NIQMTQSPSSLSASVGDRVTITCKASENVGTYVSWYQQKPGKSPKLLIYGASNRYTGVPSRFSGSGSGTDFTLTISSLQPEDFATYYCGQFYSFPSTFGGGTKVEIK
scFv (part 2 of 2): EVQLVESGGGLVKPGGSLRLSCAASGITFSNFWMNWVRQAPEKGLEWVGQIRLKSDDYATHYAESVKGRFTISREDSKNTVYLQMNSLKTEDTAVYYCTTGYYFDYWGQGTTVTVSS
notes: humanized mab015, VL-linker-VH-human IgG1 Fc; also called Hab015L5H6a; not shown: linker; human IgG1 Fc fragment
With B6, the binding result (with human DLL3-his protein; in experiment [1]; in experiment [2]; in experiment [3]; in experiment [4]) was “binds” throughout.
